In CN108752475A (BEIJING WISDOMAB BIOTECHNOLOGY CO LTD, dated 2018):
Like-named read-outs stand apart in the source and are kept apart here.

T1: 小鼠CD38胞外区 (mCD38) with C-terminal His tag, mCD38-his (mouse (mus musculus), UniProt P56528 45-304)
T1 construct: Recombinant, made in HEK293 cells; coated on the ELISA plate; not shown: His tag added at the C-terminus
T1 sequence: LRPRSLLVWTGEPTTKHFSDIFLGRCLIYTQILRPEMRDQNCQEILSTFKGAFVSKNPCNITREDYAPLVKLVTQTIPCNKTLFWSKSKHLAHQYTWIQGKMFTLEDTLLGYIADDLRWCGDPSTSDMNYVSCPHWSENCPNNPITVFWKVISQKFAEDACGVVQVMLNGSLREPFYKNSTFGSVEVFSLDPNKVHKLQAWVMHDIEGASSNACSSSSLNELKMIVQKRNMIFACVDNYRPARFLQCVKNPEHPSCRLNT


Assays:
[1] = molecular target: T2, 食蟹猴CD38胞外区 (mfCD38) with C-terminal His tag, mfCD38-his (cynomolgus monkey (Macaca fascicularis), UniProt Q5VAN0 44-301); test: SPR (Biacore), antibody captured by anti-human Fc on CM5, mfCD38 as analyte
T2 construct: not shown: His tag added at the C-terminus
T2 sequence (Q5VAN0 44-301): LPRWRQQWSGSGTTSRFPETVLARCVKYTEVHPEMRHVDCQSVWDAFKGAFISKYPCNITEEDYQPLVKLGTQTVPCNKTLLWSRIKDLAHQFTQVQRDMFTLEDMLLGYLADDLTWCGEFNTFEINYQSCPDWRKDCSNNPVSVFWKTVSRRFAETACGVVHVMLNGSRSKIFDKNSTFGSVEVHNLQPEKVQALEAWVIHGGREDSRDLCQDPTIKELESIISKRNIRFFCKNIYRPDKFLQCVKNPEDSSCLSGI

[2] = molecular target: T3, 人CD38胞外区 (hCD38) with C-terminal His tag, hCD38-his (human (homo sapiens), UniProt P28907 43-300); test: SPR (Biacore), antibody captured by anti-human Fc on CM5, hCD38 as analyte, 25 °C
T3 construct: Recombinant, made in HEK293 cells; not shown: His tag added at the C-terminus

[3] = molecular target: T1, 小鼠CD38胞外区 (mCD38) with C-terminal His …; test: ELISA, mCD38-his coated at 1.5 μg/ml, HRP anti-human IgG detection
[4] = molecular target: T3, 人CD38胞外区 (hCD38) with C-terminal His …; test: SPR (Biacore), antibody captured by anti-human Fc on CM5, hCD38 as analyte, 25 °C; remark: listed apart in the source

Kd [1] | Kd [2] | binding result [3] | Kd [4] | Binder
3.14 nM | 0.178 nM | no binding | – | S5B8 (mouse-human chimeric antibody, human IgG1) (antibody, V domains shown, Tested as a recombinant human IgG1-kappa/lambda mouse-human chimeric antibody; also called 鼠单抗S5B8) VH: QVQLQQSGSVLVRPGVSVKLSCKASGYAFTNSWMHWAKQRPGQGLEWIGEIHPQSGRTNYNEKFKGKATLTVDTSSSTAYVDFSSLTSEDSAVYYCARDLLQFGNQYYYAMDYWGQGTSVTVSS VL: DVVMTQTPLSLPVSLGDQASISCRSSQSLVHSNGNTYLHWYLQKPGQSPKLLIYKVSNRFSGVPDRFSGSGSGTDFTLKISRVEAEDLGVYFCSQSTHVPLTFGAGTKLEMK
3.48 nM | 0.0486 nM | – | – | S5B8VH-h2+S5B8VK-h2 (antibody, human IgG1, V domains shown, Humanized, expressed as a human IgG1 whole antibody; also called S5B8人源化分子) VH: QVQLVQSGAEVKKPGASVKVSCKASGYAFTNSWMHWVRQAPGQGLEWMGEIHPQSGRTNYNEKFKGRVTMTRDTSTSTVYMELSSLRSEDTAVYYCARDLLQFGNQYYYAMDYWGQGTLVTVSS VL: DIVMTQTPLSLPVTPGEPASISCRSSQSLVHSNGNTYLHWYLQKPGQSPQLLIYKVSNRFSGVPDRFSGSGSGTDFTLKISRVEAEDVGVYYCSQSTHVPLTFGQGTKLEIK
– | – | no binding | – | S5B7 (mouse-human chimeric antibody, human IgG1) (antibody, Tested as a human IgG1-kappa/lambda chimeric antibody built from the variable domains of this scFv) scFv: QVQLQQPGSVLVRPGASVKLSCKATGYTFSSYWIEWVKQRPGHGLEWIGDILPGTGTTNYNEKFKGKATFTADTSSNTAYMQFSSLTSEDSAVYYCASSYGNYVWGQGTSLTVSSGGGGSGGGGSGGGGSDVVMTQSPASLAVSLGQRATISCKASQSVDYDGDSYMNWYQQKPGQPPRLLIYAASNLESGIPARFSGSGSGTDFTLNIHPVEEEDAATYYCQQGNGAPRTFGGGTKLEIK
13.6 nM | 0.371 nM | – | – | S5B8VH-h1+S5B8VK-h1 (antibody, human IgG1, V domains shown, Humanized, expressed as a human IgG1 whole antibody; also called S5B8人源化分子) VH: QVQLVQSGAEVKKPGASVKVSCKASGYAFTNSWMHWVRQAPGQRLEWMGEIHPQSGRTNYNEKFKGRVTITRDTSASTAYMELSSLRSEDTAVYYCARDLLQFGNQYYYAMDYWGQGTLVTVSS VL: DVVMTQSPLSLPVTLGQPASISCRSSQSLVHSNGNTYLHWFQQRPGQSPRRLIYKVSNRFSGVPDRFSGSGSGTDFTLKISRVEAEDVGVYYCSQSTHVPLTFGQGTKLEIK
5.15 nM | 0.0894 nM | – | – | S5B8VH-h1+S5B8VK-h2 (antibody, human IgG1, V domains shown, Humanized, expressed as a human IgG1 whole antibody; also called S5B8人源化分子) VH: QVQLVQSGAEVKKPGASVKVSCKASGYAFTNSWMHWVRQAPGQRLEWMGEIHPQSGRTNYNEKFKGRVTITRDTSASTAYMELSSLRSEDTAVYYCARDLLQFGNQYYYAMDYWGQGTLVTVSS VL: DIVMTQTPLSLPVTPGEPASISCRSSQSLVHSNGNTYLHWYLQKPGQSPQLLIYKVSNRFSGVPDRFSGSGSGTDFTLKISRVEAEDVGVYYCSQSTHVPLTFGQGTKLEIK
9.66 nM | 0.406 nM | – | – | S5B8VH-h2+S5B8VK-h1 (antibody, human IgG1, V domains shown, Humanized, expressed as a human IgG1 whole antibody; also called S5B8人源化分子) VH: QVQLVQSGAEVKKPGASVKVSCKASGYAFTNSWMHWVRQAPGQGLEWMGEIHPQSGRTNYNEKFKGRVTMTRDTSTSTVYMELSSLRSEDTAVYYCARDLLQFGNQYYYAMDYWGQGTLVTVSS VL: DVVMTQSPLSLPVTLGQPASISCRSSQSLVHSNGNTYLHWFQQRPGQSPRRLIYKVSNRFSGVPDRFSGSGSGTDFTLKISRVEAEDVGVYYCSQSTHVPLTFGQGTKLEIK
– | – | no binding | – | S5E3 (mouse-human chimeric antibody, human IgG1) (antibody, Tested as a human IgG1-kappa/lambda chimeric antibody built from the variable domains of this scFv) scFv: QVQLQQSGPEVVKPGASVKMSCKATGYTSRSYWIEWVKQRPGHGLEWIGEILPGSGSTNYNEKFKGKATFTADTSSNTAYMQLSSLTSEDSAVYYCARWDGNYGDFVLDYWGQGTSVTVSSGGGGSGGGGSGGGGSDIQMTQSPSSMYASLGERVTITCKASQDINSYLSWFQQKPGKSPKTLIYRANRLVDGVPSRFSGSGSGQDYFLTISSLEYEDMGIYYCLQYDEFPYTFGGGTKLEMK
– | – | no binding | – | S5D3 (mouse-human chimeric antibody, human IgG1) (antibody, Tested as a human IgG1-kappa/lambda chimeric antibody built from the variable domains of this scFv) scFv: QVQLQQSGAELMKPGASVKISCKATGYTSSSYWIEWVKQRPGHGLEWIGEILPGSGSTNYNEKFKGKATFTADTSSNTAYMQLSSLTSEDSAVYYCARLYDNSYFDYWGQGTSLTVSSGGGGSGGGGSGGGGSDIVMTQSPSSMYASLGERVTITCKASQDINSYLSWFQQKPGKSPKTLIYRANRLVDGVPSRFSGSGSGQDYSLTISSLEYEDMGIYYCLQYDEFPYTFGGGTKLEMK
– | – | – | 2.73 nM | S5A10-h1 (antibody, human IgG1, V domains shown, Humanized, expressed as a human IgG1 whole antibody; also called S5A10VH-h1+S5A10VK-h1; S5A10人源化分子) VH: QVQLVQSGAEVKKPGSSVKVSCKASDYPFISYTIHWVRQAPGQGLEWMGYINPSNGYTNYNQKFKDRVTITADKSTSTAYMELSSLRSEDTAVYYCARKYGNFYAMDYWGQGTLVTVSS VL: DIQMTQSPSSLSASVGDRVTITCRASENIYSYLAWYQQKPGKAPKLLIYNAKTLAEGVPSRFSGSGSGTDFTLTISSLQPEDFATYYCQHHYGTPYTFGQGTKLEIK
– | – | no binding | – | S5B5 (mouse-human chimeric antibody, human IgG1) (antibody, Tested as a human IgG1-kappa/lambda chimeric antibody built from the variable domains of this scFv) scFv: QVKLQQFGAELVKPGASVKISCKATGYTFSSYWIGWVKQRPGHGLEWIGEILPGTGSTNYNEKFKDKATFTADTSPNTAYMQLSSLTSEDSAVYYCARWDGNYGDYALDYWGQGTSVTVSAGGGGSGGGGSGGGGSDIVMTQSPSSMYASLGERVTITCKASQDINSYLSWFQQKPGKSPKTLIYRANRLVDGVPSRFSGSGSGQDYSLTISSLEYEDMGIYYCLQYDEFPYTFGGGTKLEIK
– | – | no binding | – | S5B4 (mouse-human chimeric antibody, human IgG1) (antibody, Tested as a human IgG1-kappa/lambda chimeric antibody built from the variable domains of this scFv) scFv: QVKLQQSGAELMKPGASVKISCKATGYTFSSYWIGWLKQRPGHGLEWVGELLPGSGSTNYNEKFKGKATFTADTSSNTAYMQLSSLTSEDSAVYYCARWDGNYGDYTLDYWGQGTSVTVSSGGGGSGGGGSGGGGSDIVMTQSPSSMYASLGERVTITCKASQDINSYLSWFQQKPGKSPKTLIYRANRLVDGVPSRFSGSGSGQDYSLTISSLEYEDMGIYYCLQYDEFPYTFGGGTKLEMK
